Test results as given in patent US20250002577A1 (ONCORESPONSE, published 2025).
Where a chain is given by its changes, count along the chain named.

B1: B21H1-25 (antibody, human IgG1, kappa)
heavy: not shown
light: DIQMTQTPSTVEASVGGTVTITCQASGNIYSFLAWYQQKPGQPPKLLIYTASNLETGVPSRFSGSGSGTEYTLTISGLQSDDAATYYCLGGLYSSDVSYAFGGGTEVVVKRTVAAPSVFIFPPSDEQLKSGTASVVCLLNNFYPREAKVQWKVDNALQSGNSQESVTEQDSKDSTYSLSSTLTLSKADYEKHKVYACEVTHQGLSSPVTKSFNRGEC
notes: humanized IgG1/kappa, VH2+VL5
B2: B21H1-24 (antibody, human IgG1, kappa)
heavy: not shown
light: DVVMTQSPSTVSASVGDRVTLTCQASGNIYSFLAWYQQKPGQPPKLLIYTASNLETGVPDRFSGSGSGTDYTLTISSLQADDFATYYCLGGLYSSDVSYAFGQGTKVEIKRTVAAPSVFIFPPSDEQLKSGTASVVCLLNNFYPREAKVQWKVDNALQSGNSQESVTEQDSKDSTYSLSSTLTLSKADYEKHKVYACEVTHQGLSSPVTKSFNRGEC
notes: humanized IgG1/kappa, VH2+VL4
B3: B21H1-43 (antibody, human IgG1, kappa)
heavy: not shown
light: DIVMTQSPSSVSASVGDRVTITCQASGNIYSFLAWYQQKPGKAPKLLIYTASNLETGVPSRFSGSGSGTDFTLTISSLQPEDFATYYCLGGLYSSDVSYAFGGGTKVVIKRTVAAPSVFIFPPSDEQLKSGTASVVCLLNNFYPREAKVQWKVDNALQSGNSQESVTEQDSKDSTYSLSSTLTLSKADYEKHKVYACEVTHQGLSSPVTKSFNRGEC
notes: humanized IgG1/kappa, VH4+VL3
B4: B21H1-11 (antibody, human IgG1, kappa)
heavy: not shown
light: B3 light with V3Q, S10T, V11L, D70E, F71Y, E81D, G103P, V108E
notes: humanized IgG1/kappa, VH1+VL1

Target: T1, human LILRB1 on cells (human, UniProt Q8NHL6 24-650)
T1 construct: whole, on cells; also called hLILRB1; LILRB1-expressing 721.221 cells
T1 sequence (Q8NHL6 24-650): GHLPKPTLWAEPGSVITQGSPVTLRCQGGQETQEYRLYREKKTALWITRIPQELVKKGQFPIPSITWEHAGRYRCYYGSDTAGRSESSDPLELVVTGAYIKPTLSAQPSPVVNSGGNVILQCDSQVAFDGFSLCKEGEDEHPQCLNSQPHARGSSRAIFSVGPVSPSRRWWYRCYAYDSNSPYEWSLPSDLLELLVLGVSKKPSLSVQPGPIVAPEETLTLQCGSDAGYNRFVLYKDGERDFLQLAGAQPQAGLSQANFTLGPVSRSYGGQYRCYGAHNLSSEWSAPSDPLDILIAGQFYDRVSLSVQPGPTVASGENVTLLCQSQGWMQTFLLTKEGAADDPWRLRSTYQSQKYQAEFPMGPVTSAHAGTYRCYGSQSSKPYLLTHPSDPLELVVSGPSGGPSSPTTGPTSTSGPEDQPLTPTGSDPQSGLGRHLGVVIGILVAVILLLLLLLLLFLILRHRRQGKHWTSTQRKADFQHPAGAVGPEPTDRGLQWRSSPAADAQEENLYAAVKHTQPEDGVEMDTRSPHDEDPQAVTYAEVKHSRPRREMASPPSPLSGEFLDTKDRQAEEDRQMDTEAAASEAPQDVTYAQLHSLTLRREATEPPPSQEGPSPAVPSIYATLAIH
Test: flow cytometry, 721.221 cells, AF647-labelled antibody
Description: (§1) While LILRB2 expression is mostly restricted to myeloid cells, LILRB1 has a broader expression on immune cell subsets, including B cells, T cells and NK cells.
(§2) Frozen cells were removed from storage in vapor phase liquid nitrogen and thawed by gentle swirling in a water bath at 37° C., then resuspended in DMEM media with 10% FBS. Cells were placed in a 15 mL conical tube and centrifuged at 300×g for 5 min, then supernatant was removed. Cells were resuspended in DMEM+10% FBS at a cell density of 2×10⁵ cells/mL in a T75 flask for culturing, and incubated at 37° C., 5% CO₂ for 3 days before passaging. Cells were passaged when the cell density reached 1×10⁶ cell/mL. On the day of the assay, cells were centrifuged, then supernatant was removed. Cells were resuspended in Blocking Buffer B (FACS Buffer containing 10% FBS and 0.5 mg/mL human IgG1 (Athens Research, No. 16-16-090707-1M)+0.05% NaN₃, 5% (w/v)) in a 15 mL conical tube, then incubated at 4° C. for 30 min. […] Cells were incubated with antibodies at 4° C. for 1 h. Cells were washed twice in FACS Buffer (PBS containing 2 mM EDTA+1% FBS+0.05% NaN₃) and then stained with for 10 min with Zombie Violet™ fixable viability dye (BioLegend, No. 423114) at RT, washed with FACS Buffer and resuspend in 75 μL of FACS Buffer for acquisition on a BD FACSymphony™ or BD FACSCanto™ II flow cytometer (BD Biosciences), as described in Example 6.

Row | Binder | EC50
1 | B1 | 0.0782 µg/mL
2 | B2 | 0.0595 µg/mL
3 | B3 | 0.0515 µg/mL
4 | B4 | 0.203 µg/mL

Target: T2, human LILRA2 on HEK293-6E cells (human, UniProt Q8N149 24-483)
T2 construct: whole, on cells; also called hLILRA2
T2 sequence (Q8N149 24-483): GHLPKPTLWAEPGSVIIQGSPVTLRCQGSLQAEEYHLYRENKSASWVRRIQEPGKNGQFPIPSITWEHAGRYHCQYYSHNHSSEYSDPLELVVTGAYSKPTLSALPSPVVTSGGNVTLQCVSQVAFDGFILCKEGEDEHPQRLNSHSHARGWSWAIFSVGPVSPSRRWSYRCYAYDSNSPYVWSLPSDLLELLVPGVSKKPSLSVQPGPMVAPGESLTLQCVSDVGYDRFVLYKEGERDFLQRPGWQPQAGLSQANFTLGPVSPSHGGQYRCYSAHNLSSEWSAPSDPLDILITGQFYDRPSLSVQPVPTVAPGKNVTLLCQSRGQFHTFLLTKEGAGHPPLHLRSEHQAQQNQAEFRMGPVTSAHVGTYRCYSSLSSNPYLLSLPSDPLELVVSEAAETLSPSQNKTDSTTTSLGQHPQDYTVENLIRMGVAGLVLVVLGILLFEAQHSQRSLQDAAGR
Test: flow cytometry, HEK293-6E transfectants
Description: (§3) To determine that the parent chimera anti LILRB2/1 antibody specifically binds to LILRB2 and LILRB1 and not to other LILRB and LILRA family members, a cross-reactivity assay was performed. Cross-reactivity was assessed by antibody binding to transiently transfected HEK293-6E cells by flow cytometry. Binding was evaluated to HEK293-6E cells transiently transfected with human LILRB-1, -2, -3, -4, and 5 plasmids (Origene, Nos. RC219949, RC217935, RC211228, RC220932, RC206516) or to cells transiently transfected with human LILRA-1, -2, -4, -5, and -6 plasmids (Origene, Nos. RC210808, RC205626, RC220452, RC212310 RC212965). […] At a concentration of 1 μg/mL, no binding of B21A1 or the humanized variants to LILRB-3, -4, or -5 was observed (Table 7). Additionally, no binding to LILRA-1, -2, -4, -5, or -6 was observed, confirming the specificity of B21A1 and its humanized variants to LILRB1 and LILRB2 (Table 8).

Row | Binder | MFI | binding result
5 | B1 | 27.4 MFI | no binding (tested: 1 µg/mL)
6 | B2 | 25.6 MFI | no binding (tested: 1 µg/mL)
7 | B3 | 25.2 MFI | no binding (tested: 1 µg/mL)
8 | B4 | 27.8 MFI | no binding (tested: 1 µg/mL)

Target: T3, human LILRA5 on HEK293-6E cells (human, UniProt A6NI73 42-299)
T3 construct: whole, on cells; also called hLILRA5
T3 sequence (A6NI73 42-299): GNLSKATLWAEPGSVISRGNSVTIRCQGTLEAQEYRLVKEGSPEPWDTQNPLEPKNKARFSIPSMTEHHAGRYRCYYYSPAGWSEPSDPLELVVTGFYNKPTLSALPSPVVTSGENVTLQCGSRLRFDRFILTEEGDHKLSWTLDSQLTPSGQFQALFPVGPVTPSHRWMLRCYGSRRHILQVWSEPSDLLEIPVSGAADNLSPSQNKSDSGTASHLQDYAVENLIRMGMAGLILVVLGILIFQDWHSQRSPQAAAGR
Test: flow cytometry, HEK293-6E transfectants
Description: as §3

Row | Binder | MFI | binding result
9 | B1 | 78.2 MFI | no binding (tested: 1 µg/mL)
10 | B2 | 74.5 MFI | no binding (tested: 1 µg/mL)
11 | B3 | 71.8 MFI | no binding (tested: 1 µg/mL)
12 | B4 | 76 MFI | no binding (tested: 1 µg/mL)

Target: T4, human LILRB2 on cells (human, UniProt Q8N423 22-597)
T4 construct: whole, on cells; also called hLILRB2; LILRB2-HEK293T
T4 sequence (Q8N423 22-597): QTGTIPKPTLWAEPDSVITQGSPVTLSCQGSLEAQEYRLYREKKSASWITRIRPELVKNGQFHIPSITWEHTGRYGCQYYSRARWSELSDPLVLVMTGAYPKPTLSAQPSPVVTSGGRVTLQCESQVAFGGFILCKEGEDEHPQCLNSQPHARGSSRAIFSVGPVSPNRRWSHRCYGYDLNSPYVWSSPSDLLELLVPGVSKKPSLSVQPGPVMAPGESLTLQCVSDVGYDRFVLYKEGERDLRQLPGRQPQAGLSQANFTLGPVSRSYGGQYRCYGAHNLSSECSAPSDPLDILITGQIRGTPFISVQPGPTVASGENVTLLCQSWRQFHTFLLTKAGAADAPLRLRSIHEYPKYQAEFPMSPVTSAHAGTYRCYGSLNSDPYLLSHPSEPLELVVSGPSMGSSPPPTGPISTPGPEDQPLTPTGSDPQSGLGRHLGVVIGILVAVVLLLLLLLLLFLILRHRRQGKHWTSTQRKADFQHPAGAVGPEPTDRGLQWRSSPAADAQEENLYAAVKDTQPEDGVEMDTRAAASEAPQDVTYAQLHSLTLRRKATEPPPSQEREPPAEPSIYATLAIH
Test: flow cytometry, HEK293-6E transfectants
Description: as §3

Row | Binder | MFI
13 | B1 | 5320 MFI
14 | B2 | 6050 MFI
15 | B3 | 6370 MFI
16 | B4 | 5090 MFI

Target: T5, human LILRB4 on HEK293-6E cells (human, UniProt Q8NHJ6 22-448)
T5 construct: whole, on cells; also called hLILRB4
Test: flow cytometry, HEK293-6E transfectants
Description: as §3

Row | Binder | MFI | binding result
17 | B1 | 32.4 MFI | no binding (tested: 1 µg/mL)
18 | B2 | 28.6 MFI | no binding (tested: 1 µg/mL)
19 | B3 | 26.5 MFI | no binding (tested: 1 µg/mL)
20 | B4 | 32.4 MFI | no binding (tested: 1 µg/mL)

Target: T6, human LILRA4 on HEK293-6E cells (human, UniProt P59901 24-499)
T6 construct: whole, on cells; also called hLILRA4
T6 sequence (P59901 24-499): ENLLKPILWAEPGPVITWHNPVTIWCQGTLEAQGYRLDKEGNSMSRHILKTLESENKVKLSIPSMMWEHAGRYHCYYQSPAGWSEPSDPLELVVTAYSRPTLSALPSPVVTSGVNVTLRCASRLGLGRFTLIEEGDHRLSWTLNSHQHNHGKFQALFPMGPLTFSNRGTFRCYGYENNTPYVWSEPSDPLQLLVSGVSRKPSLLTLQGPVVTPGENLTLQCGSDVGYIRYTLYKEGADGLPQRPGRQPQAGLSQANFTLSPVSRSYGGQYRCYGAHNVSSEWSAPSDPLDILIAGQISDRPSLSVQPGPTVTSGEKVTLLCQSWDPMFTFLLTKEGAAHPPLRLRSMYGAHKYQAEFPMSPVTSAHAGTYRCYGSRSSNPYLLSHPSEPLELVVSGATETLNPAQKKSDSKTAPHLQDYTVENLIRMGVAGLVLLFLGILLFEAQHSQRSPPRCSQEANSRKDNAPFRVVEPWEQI
Test: flow cytometry, HEK293-6E transfectants
Description: as §3

Row | Binder | MFI | binding result
21 | B1 | 138 MFI | no binding (tested: 1 µg/mL)
22 | B2 | 125 MFI | no binding (tested: 1 µg/mL)
23 | B3 | 114 MFI | no binding (tested: 1 µg/mL)
24 | B4 | 140 MFI | no binding (tested: 1 µg/mL)

Target: T7, human LILRA1 on HEK293-6E cells (human, UniProt O75019 17-489)
T7 construct: whole, on cells; also called hLILRA1
T7 sequence (O75019 17-489): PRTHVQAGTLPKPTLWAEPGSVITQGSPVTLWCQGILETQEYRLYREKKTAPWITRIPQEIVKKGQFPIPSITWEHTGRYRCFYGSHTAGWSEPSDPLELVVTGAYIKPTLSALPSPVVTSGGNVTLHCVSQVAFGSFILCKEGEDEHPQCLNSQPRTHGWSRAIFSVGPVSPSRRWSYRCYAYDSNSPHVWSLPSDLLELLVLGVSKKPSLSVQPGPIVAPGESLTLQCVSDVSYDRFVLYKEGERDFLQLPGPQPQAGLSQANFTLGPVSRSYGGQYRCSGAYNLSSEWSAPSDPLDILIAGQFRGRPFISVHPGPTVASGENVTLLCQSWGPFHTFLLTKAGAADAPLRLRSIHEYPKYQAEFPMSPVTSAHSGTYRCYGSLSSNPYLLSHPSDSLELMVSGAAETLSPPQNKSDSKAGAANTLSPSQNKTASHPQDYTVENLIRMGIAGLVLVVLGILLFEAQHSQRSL
Test: flow cytometry, HEK293-6E transfectants
Description: as §3

Row | Binder | MFI | binding result
25 | B1 | 280 MFI | no binding (tested: 1 µg/mL)
26 | B2 | 246 MFI | no binding (tested: 1 µg/mL)
27 | B3 | 220 MFI | no binding (tested: 1 µg/mL)
28 | B4 | 244 MFI | no binding (tested: 1 µg/mL)

Target: T1, human LILRB1 on cells
Test: flow cytometry, HEK293-6E transfectants
Description: as §3

Row | Binder | MFI
29 | B1 | 990 MFI
30 | B2 | 985 MFI
31 | B3 | 1120 MFI
32 | B4 | 1000 MFI

Target: T8, human LILRA6 on HEK293-6E cells (human, UniProt Q6PI73 24-481)
T8 construct: whole, on cells; also called hLILRA6
T8 sequence (Q6PI73 24-481): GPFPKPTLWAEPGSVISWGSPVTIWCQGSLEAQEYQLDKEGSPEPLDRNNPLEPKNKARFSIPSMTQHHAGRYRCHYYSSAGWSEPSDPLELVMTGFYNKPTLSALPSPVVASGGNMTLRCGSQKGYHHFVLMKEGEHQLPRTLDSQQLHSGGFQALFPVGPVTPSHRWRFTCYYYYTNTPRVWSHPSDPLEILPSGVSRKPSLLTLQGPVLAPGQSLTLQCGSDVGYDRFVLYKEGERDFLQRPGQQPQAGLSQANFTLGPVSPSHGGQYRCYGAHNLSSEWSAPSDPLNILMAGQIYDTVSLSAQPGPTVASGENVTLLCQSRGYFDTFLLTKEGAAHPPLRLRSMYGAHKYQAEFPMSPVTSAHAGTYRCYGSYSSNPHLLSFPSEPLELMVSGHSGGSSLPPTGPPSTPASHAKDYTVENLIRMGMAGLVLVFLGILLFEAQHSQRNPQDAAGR
Test: flow cytometry, HEK293-6E transfectants
Description: as §3

Row | Binder | MFI | binding result
33 | B1 | 148 MFI | no binding (tested: 1 µg/mL)
34 | B2 | 141 MFI | no binding (tested: 1 µg/mL)
35 | B3 | 141 MFI | no binding (tested: 1 µg/mL)
36 | B4 | 152 MFI | no binding (tested: 1 µg/mL)

Target: T9, human LILRB3 on HEK293-6E cells (human, UniProt O75022 24-631)
T9 construct: whole, on cells; also called hLILRB3
Test: flow cytometry, HEK293-6E transfectants
Description: as §3

Row | Binder | MFI | binding result
37 | B1 | 93.9 MFI | no binding (tested: 1 µg/mL)
38 | B2 | 86.2 MFI | no binding (tested: 1 µg/mL)
39 | B3 | 79.2 MFI | no binding (tested: 1 µg/mL)
40 | B4 | 102 MFI | no binding (tested: 1 µg/mL)

Target: T10, human LILRB5 on HEK293-6E cells (human, UniProt O75023 24-590)
T10 construct: whole, on cells; also called hLILRB5
T10 sequence (O75023 24-590): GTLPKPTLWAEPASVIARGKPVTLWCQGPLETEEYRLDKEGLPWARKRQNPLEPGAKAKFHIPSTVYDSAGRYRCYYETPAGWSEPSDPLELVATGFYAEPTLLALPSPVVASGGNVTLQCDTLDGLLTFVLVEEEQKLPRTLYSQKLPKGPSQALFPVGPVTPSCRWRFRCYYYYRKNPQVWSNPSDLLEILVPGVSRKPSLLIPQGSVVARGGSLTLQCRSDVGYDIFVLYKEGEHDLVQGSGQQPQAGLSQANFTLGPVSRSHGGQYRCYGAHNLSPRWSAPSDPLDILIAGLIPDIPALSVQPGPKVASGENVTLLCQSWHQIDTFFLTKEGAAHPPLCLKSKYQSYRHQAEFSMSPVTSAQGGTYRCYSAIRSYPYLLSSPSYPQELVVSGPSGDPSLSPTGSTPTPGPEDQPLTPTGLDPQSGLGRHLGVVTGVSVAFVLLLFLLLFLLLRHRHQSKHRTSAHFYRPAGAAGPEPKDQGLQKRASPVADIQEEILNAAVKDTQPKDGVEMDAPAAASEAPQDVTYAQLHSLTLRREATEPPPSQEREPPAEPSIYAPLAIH
Test: flow cytometry, HEK293-6E transfectants
Description: as §3

Row | Binder | MFI | binding result
41 | B1 | 90.6 MFI | no binding (tested: 1 µg/mL)
42 | B2 | 87 MFI | no binding (tested: 1 µg/mL)
43 | B3 | 85.5 MFI | no binding (tested: 1 µg/mL)
44 | B4 | 93.4 MFI | no binding (tested: 1 µg/mL)

Target: T11, recombinant human LILRB1-His (human, UniProt Q8NHL6 24-458)
T11 construct: Bought protein; also called LILRB1 protein
T11 sequence (Q8NHL6 24-458 limits assumed): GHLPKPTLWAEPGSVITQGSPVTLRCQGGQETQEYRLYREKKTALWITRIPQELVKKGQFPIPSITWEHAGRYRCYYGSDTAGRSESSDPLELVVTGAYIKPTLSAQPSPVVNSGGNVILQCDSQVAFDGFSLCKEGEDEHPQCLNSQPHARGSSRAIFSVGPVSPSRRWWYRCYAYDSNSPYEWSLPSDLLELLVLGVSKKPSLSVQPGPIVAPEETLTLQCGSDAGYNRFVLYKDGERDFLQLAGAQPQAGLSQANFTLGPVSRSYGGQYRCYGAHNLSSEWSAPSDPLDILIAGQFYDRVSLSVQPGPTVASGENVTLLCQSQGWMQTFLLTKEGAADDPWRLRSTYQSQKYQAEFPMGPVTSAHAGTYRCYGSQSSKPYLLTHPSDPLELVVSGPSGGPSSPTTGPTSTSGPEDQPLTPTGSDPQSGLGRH
Test: MSD ELISA, coated antigen, purified IgG1
Description: (§4) Recombinant human and cynomolgus LILRB1 proteins (R&D Systems, No. 8989-T2-050; ACROBiosystems, No. CDJ-C52H3) and recombinant human and cynomolgus LILRB2 proteins (ACROBiosystems, No. LI2-H5220; No. L12-C52H3) were diluted in PBS to 4 μg/mL and added to a multi-array 384-well high-binding plates (MSD, No. L21XA4) at 10 μL/well and incubated at 4° C. overnight. The plates were washed several times with Wash Buffer (0.05% Tween® 20 in PBS), using a microplate washer and then blocked with 70 μL/well of 5% BSA in PBS for 1 hour (h) at room temperature (RT) with shaking at 700 rpm. After blocking, 20 μL/well of anti-LILRB2/LILRB1 antibodies or isotype control were added to the plates, and the plates were sealed and incubated for 2 h at RT with shaking at 700 rpm. After primary antibody binding, plates were washed five times with 70 μL/well of Wash Buffer (0.05% Tween® 20 in PBS) using a microplate washer. Secondary detection antibody (SULFO-TAG™-labeled goat anti-human IgG antibody (MSD, No. R32AJ-1)) was diluted to 4 μg/mL in assay diluent (1% BSA in PBS) and 10 μL/well was added to plates and incubated at RT protected from light for 1 h, with shaking at 700 rpm. Following incubation, plates were washed five times with Wash Buffer, using a microplate washer. After removal of the final wash, 35 μL/well of MSD Gold Read Buffer B (MSD, No. R60AM-4) was added to all wells using a Multidrop combo washer/dispenser, and plates were read using MESO Sector 600MM instrument (MSD) within 5 minutes (min) after addition of Read Buffer. Signals as counts per minute (cpm) were recorded. EC₅₀ values were calculated using GraphPad Prism based on log concentration of the primary antibodies versus cpm values.

Row | Binder | EC50
45 | B1 | 0.0095 µg/mL
46 | B2 | 0.00864 µg/mL
47 | B3 | 0.00734 µg/mL
48 | B4 | 0.00734 µg/mL

Target: T12, recombinant cynomolgus LILRB1 (cynomolgus)
T12 construct: Bought protein
Test: MSD ELISA, coated antigen, purified IgG1
Description: as §4

Row | Binder | EC50
49 | B1 | 0.377 µg/mL
50 | B2 | 0.286 µg/mL
51 | B3 | 1.51 µg/mL
52 | B4 | 4.4 µg/mL

Target: T13, recombinant human LILRB2-His (human, UniProt Q8N423 22-461, limits assumed)
T13 construct: Bought protein; also called LILRB2 protein
T13 sequence (Q8N423 22-461 limits assumed): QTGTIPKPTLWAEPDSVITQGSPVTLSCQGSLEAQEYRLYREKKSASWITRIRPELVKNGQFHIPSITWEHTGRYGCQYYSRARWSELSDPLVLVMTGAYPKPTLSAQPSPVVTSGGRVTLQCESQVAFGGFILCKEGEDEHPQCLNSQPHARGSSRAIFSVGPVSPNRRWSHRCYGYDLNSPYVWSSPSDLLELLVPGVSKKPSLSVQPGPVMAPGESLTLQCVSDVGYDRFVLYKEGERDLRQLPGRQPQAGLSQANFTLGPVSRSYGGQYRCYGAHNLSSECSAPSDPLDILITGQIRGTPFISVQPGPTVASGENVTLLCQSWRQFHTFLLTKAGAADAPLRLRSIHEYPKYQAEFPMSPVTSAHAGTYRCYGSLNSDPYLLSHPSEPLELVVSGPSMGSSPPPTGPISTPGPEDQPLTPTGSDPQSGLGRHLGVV
Test: MSD ELISA, coated antigen, purified IgG1
Description: as §4

Row | Binder | EC50
53 | B1 | 0.0318 µg/mL
54 | B2 | 0.0287 µg/mL
55 | B3 | 0.0248 µg/mL
56 | B4 | 0.0306 µg/mL

Target: T4, human LILRB2 on cells
Test: flow cytometry, LILRB2-HEK293T cells, AF647-labelled antibody
Description: as §1, §2

Row | Binder | EC50
57 | B1 | 0.0009 µg/mL
58 | B2 | 0.00142 µg/mL
59 | B3 | 0.00135 µg/mL
60 | B4 | 0.00107 µg/mL
